As a reminder, the Km is the concentration of substrate that gives half-maximal velocity.

Km and kcat data for one protein are collected here from publication PMC10517005, “A conserved membrane protein negatively regulates Mce1 complexes in mycobacteria” (Nature Communications, 2023).

Substrate in this data set: Nc1ncnc2c1ncn2[C@@H]1O[C@H](COP(=O)(O)OP(=O)(O)OP(=O)(O)O)[C@@H](O)[C@H]1O
As to the kind of experiment: NADH-coupled ATPase assay (pyruvate kinase / lactate dehydrogenase), fit with Hill coefficient. Type of data set: biochemical, Mycolicibacterium smegmatis. The following applies: 0.1 μM complex in 0.05% DDM micelles, 20 mM Tris-HCl pH 8.0, 150 mM NaCl, 5 mM MgCl2, 10% glycerol, 37 °C, Michaelis-Menten with Hill term (n = 1.28 ± 0.57).

B1: YrbE1A/B-MceG (core ABC transporter of the Mce1 system) (Mycolicibacterium smegmatis MC2 155) (protein)
chain: MGVQIDVTGLSKSFGSSKIWEDVTMSIPAGEVSVLLGPSGTGKSVFLKSLIGLLRPERGSIVIDGTDILQCSAKELYEIRTLFGVLFQDGALFGSMNIYDNTAFPLREHTKKSESEIRKIVMEKLDLVGMPNDGHKFPGEISGGMRKRAGLARALVLDPEIILCDEPDSGLDPVRTAYLSQLLIDINAQIDATVLIVTHNINIARTVPDNMGMLFRKQLVMFGPREVLLTSEEPVVKQFLNGRRIGPIGMSEEKDEATAAAEQALVDAGQHDGGVEEIEGVPPQLQATPGMPERKAVARRKARVREILHTLPPAAQAAILEELDRDQPQLSAPTTQTAATAPVENYDDSPTGVIEVPKQA
notes: YrbE1A, His6-YrbE1B and MceG co-expressed in E. coli BL21(λDE3); DDM-solubilised, TALON and SEC purified; with ABC transporter permease YrbE1A (Mce1 transmembrane domain protein); ABC transporter permease YrbE1B (Mce1 transmembrane domain protein)
As to B1, the Michaelis constant (Km) is 284 ± 311 µM and the kcat is 0.184 ± 0.125 μM ATP s^−1/μM complex.
